Measurements from patent US20250152746A1, “BASE EDITING OF ANGPTL3 AND METHODS OF USING SAME FOR TREATMENT OF DISEASE” (Verve Therapeutics, Inc., priority 2020, published 2025).
In the oligonucleotide strings, read from the 5' end, every base follows the letter of its sugar. An asterisk marks phosphorothioate; unmarked linkages are phosphodiester. Other units and linkages are bracketed, terminal groups are in braces. A string of capitals states the bases alone. m = 2'-O-methyl; r = 2'-OH (RNA)

B1: GA401 (nucleic acid)
guide: mU*mC*mA*rGrCrUrCrCrArGrGrCrGrGrUrCrCrUrGrGmGrUrUrUrUrArGmAmGmCmUmAmGmAmAmAmUmAmGmCmAmArGrUrUmArAmArAmUrAmAmGmGmCmUmArGrUmCmCrGrUrUrAmUmCrArAmCmUmUmGmAmAmAmAmAmGmUmGrGmCmAmCmCmGmAmGmUmCmGmGmUmGmCmU*mU*mU*mUmUmUmU
B2: GA007: structure-guided 2′-OMe heavy guide RNA (gRNA) design, PCSK9 (nucleic acid)
guide: mG*mG*mU*rGrCrUrArGrCrCrUrUrGrCrGrUrUrCrCrGmGrUrUrUrUrArGmAmGmCmUmAmGmAmAmAmUmAmGmCmAmArGrUrUmArAmArAmUrAmAmGmGmCmUmArGrUmCmCrGrUrUrAmUmCrArAmCmUmUmGmAmAmAmAmAmGmUmGrGmCmAmCmCmGmAmGmUmCmGmGmUmGmCmU*mU*mU*mU
B3: GA402 (nucleic acid)
guide: mU*mC*mA*rGrCrUrCrCrArGrGrCrGrGrUrCrCrUrGrGmGrUrUrUrUrArGmAmGmCmUmArGmAmAmAmUmAmGmCmAmArGrUrUmArAmArAmUrAmAmGmGmCmUmArGrUmCmCrGrUrUrAmUmCrArAmCmUmUrGmAmAmAmAmAmGmUmGrGmCmAmCmCmGmAmGmUmCmGmGmUmGmCmU*mU*mU*mUmUrUmU
B4: GA404 (nucleic acid)
guide: mU*mC*mA*rGrCrUrCrCrArGrGrCrGrGrUrCrCrUrGrGmGrUrUrUrUrArGmAmGmCmUmArGmAmAmAmUmAmGmCmAmArGrUrUmArAmArAmUrAmAmGmGmCmUmArGrUmCmCrGrUrU*rAmUmCrArAmCmUmUrGmAmAmAmAmAmGmUmGrGmCmAmCmCmGmAmGmUmCmGmGmUmGmCmU*mU*mU*mUmUrUmU
B5: GA403 (nucleic acid)
guide: mU*mC*mA*rGrCrUrCrCrArGrGrCrGrGrUrCrCrUrGrGmGrUrUrUrUrArGmAmGmCmUmArGmAmAmAmUmAmGmCmAmArGrUrU*mArAmArAmUrAmAmGmGmCmUmArGrUmCmCrGrUrUrAmUmCrArAmCmUmUrGmAmAmAmAmAmGmUmGrGmCmAmCmCmGmAmGmUmCmGmGmUmGmCmU*mU*mU*mUmUrUmU
B6: GA008: structure-guided 2′-OMe heavy guide RNA (gRNA) design, PCSK9 (nucleic acid)
guide: mG*mG*mU*rGrCrUrArGrCrCrUrUrGrCrGrUrUrCrCrGmGrUrUrUrUrArGmAmGmCmUmAmGmAmAmAmUmAmGmCmAmArGrUrU*mArAmArAmUrAmAmGmGmCmUmArGrUmCmCrGrUrU*rAmUmCrArAmCmUmUmGmAmAmAmAmAmGmUmGrGmCmAmCmCmGmAmGmUmCmGmGmUmGmCmU*mU*mU*mU
B7: GA226: PCSK9 gRNA; protospacer GGCTTTTCCGAATAAACTCC (SEQ ID NO: 220) (nucleic acid)
guide: GGCUUUUCCGAAUAAACUCCGUUUUAGAGCUAGAAAUAGCAAGUUAAAAUAAGGCUAGUCCGUUAUCAACUUGAAAAAGUGGCACCGAGUCGGUGCUUUU
modifications: sugars from the 5' end m3 r94 m3, linkages s3 o93 s3 (s phosphorothioate, o phosphodiester), T or U not given here
B8: GA408 (nucleic acid)
guide: mU*mC*mA*rGrCrUrCrCrArGrGrCrGrGrUrCrCrUrGrGmGrUrUrUrUrArGmAmGmCmUmAmGmAmAmAmUmAmGmCmAmArGrUrUmArAmArAmUrAmAmGmGmCmUmArGrUmCmCrGrUrUrAmUmCrArAmCmUmUmGmAmAmAmAmAmGmUmGrGmCmAmCmCmGmAmGmUmCmGmGmUmGmCmU*mU*mU*mUmUrUmU
B9: GA406 (nucleic acid)
guide: TCAGCTCCAGGCGGTCCTGGGTTTTAGAGCTAGAAATAGCAAGTTAAAATAAGGCTAGTCCGTTATCAACTTGAAAAAGTGGCACCGAGTCGGTGCTTTTTTT
modifications: listed as RNA; modified_base 1: mod_base = OTHER; note = 2'-O-Methyl-uridine phosphorothioate; modified_base 2: mod_base = OTHER; note = 2'-O-Methyl-cytidine phosphorothioate; modified_base 3: mod_base = OTHER; note = 2'-O-Methyl-adenosine phosphorothioate;

How the values were obtained:
PCSK9 gene [1] = assay: PCSK9 gRNA/SpCas9 editing in primary cynomolgus hepatocytes (Tables 2, 22); type: cell-based, cynomolgus monkey
Experimental: (§1) In set of experiments, PCSK9 gRNAs were co-transfected with an equivalent amount (1:1 ratio by weight) of in vitro transcribed commercially available SpCas9 mRNA MS002 purchased from TriLink Biotechnologies into primary human hepatocytes at 2500, 500, or 100 ng/RNA/mL and processed as described in detailed methods. Extracted genomic DNA was analyzed for gene editing at the target site with next-generation sequencing of PCR amplicons generated around the target sites. Samples were prepared using the Nextera XT DNA library preparation kit (Illumina) according to the manufacturer's protocol. Briefly, two rounds of PCR were performed first to amplify the region of interest and second to add DNA sequences required for next generation sequencing and sample identification to the initial product. The final amplicon was sequenced on the Illumina MiSeq instrument according to the manufacturer's protocol. A wide range of editing activities (Table 2) were observed. In a second set of experiments, ANGPTL3 gRNAs were co-transfected with an equivalent amount of in vitro transcribed SpCas9 mRNA (1:1 ratio by weight) into primary human hepatocytes and processed and analyzed similarly (Table 3).
[…] Genomic DNA was processed, sequenced, and analyzed as described in the detailed methods section. GA266 was transfected independently twice to serve as two positive controls.
(§2) Plating, culturing, and transfection of primary hepatocytes. Primary human liver hepatocytes (PHH) and primary cynomolgus liver hepatocytes (PCH) from BioIVT were cultured per the manufacturer's protocol. Briefly, primary human hepatocytes and primary cyno hepatocytes were obtained as frozen aliquots from BioIVT. Four lots of primary human hepatocytes, each derived from a de-identified individual donor, were used for the experiments: STL (main donor) was used for all experiments, including screening experiments and off-target experiments; HLY, JLP, and TLY were used for off-target experiments. The HFG lot of primary cyno hepatocytes were used for experiments. Following the manufacturer's instructions, cells were thawed and rinsed prior to plating in 24-well plates that had been coated with bovine collagen overnight, with a density of approximate 350,000 cells/well in INVITROGRO hepatocyte medium supplemented with TORPEDO antibiotic mix (BioIVT). The cells were thawed and resuspended in hepatocyte thawing medium followed by centrifugation at 100 g for 10 min at 4° C. The supernatant was discarded, and the pelleted cells resuspended in hepatocyte plating medium. Each vial contains approximately 5 million cells that were used for plating one 24-well plate. Plated cells were allowed to settle and adhere for 4-6 h in a tissue culture incubator at 37° C. under 5% CO2 atmosphere. After incubation, cells were checked for monolayer formation. The incubating media were then replaced with fresh hepatocyte maintenance media (complete INVITROGRO medium obtained from BioIVT, the cell line provider). The cells thus became ready for transfection. Each of the gRNAs were co-transfected with an equivalent amount of in vitro transcribed ABE8.8 mRNA (1:1 ratio by molecular weight) into primary human hepatocytes via MessengerMax reagent (Lipofectamine), using various dilutions to assess for editing activity at different concentrations of test article. MessengerMAX from Thermo Fisher is used for transfection. Solution A: desired amount of guide RNA is mixed with 1:1 wt ratio of mRNA in OptiMEM. Solution B: MessengerMAX in OptiMEM. After mixing solutions A and B, the mixture was incubated at room temperature for 20 min. 60 μL of the incubated solution was added dropwise to each cell wells. For protospacer sequences that were a perfect match to the corresponding cynomolgous monkey PCSK9 or ANGPTL3 gene sequence, each gRNA was also co-transfected with an equivalent amount of ABE8.8 mRNA (1:1 ratio by molecular weight) into primary cynomolgous hepatocytes, and followed the same transfection protocol. […]

PCSK9 gene [2] = assay: PCSK9 gRNA/SpCas9 editing in primary human hepatocytes (Tables 2, 4); type: cell-based; conditions: for editing compared with minimally modified control gRNA GA009: SpCas9 mRNA MS002; for % Editing, day 3 / % Editing, day 5: modified gRNA; for % Editing, day 3: day 3 post transfection; for % Editing, day 5: day 5 post transfection
Experimental: as §1
PCSK9 gRNAs were co-transfected with an equivalent amount of in vitro transcribed SpCas9 mRNA MS002 (1:1 ratio by weight) into primary human hepatocytes and processed as described in detailed methods. A wide range of editing activities were observed (Table 4; ND=Not determined). The guides with the highest editing activity at five days post transfection were GA001, GA002, GA007, and GA008.
Human primary hepatocytes were transfected at 2500, 1250, 500, and 250 ng/test article/mL with SpCas9 mRNA MS002 and a gRNA targeting PCSK9 with modifications to the tracr. Genomic DNA was processed, sequenced, and analyzed as described in the detailed methods section. GA156 was transfected to serve as a positive control.
as §2, with “transfection.” for “transfection. Solution A: desired amount of guide RNA is mixed with 1:1 wt ratio of mRNA in OptiMEM. Solution B: MessengerMAX in OptiMEM. After mixing solutions A and B, the mixture was incubated at room temperature for 20 min. 60 μL of the incubated solution was added dropwise to each cell wells. For protospacer sequences that were a perfect match to the corresponding cynomolgous monkey PCSK9 or ANGPTL3 gene sequence, each gRNA was also co-transfected with an equivalent amount of ABE8.8 mRNA (1:1 ratio by molecular weight) into primary cynomolgous hepatocytes, and followed the same transfection protocol.”

[3] = SpCas9 mRNA MS002, 625 ng/test article/mL, rep1
[4] = SpCas9 mRNA MS002, 625 ng/test article/mL, rep2
[5] = SpCas9 mRNA MS002, 1250 ng/test article/mL, rep1
[6] = SpCas9 mRNA MS002, 1250 ng/test article/mL, rep2
[7] = SpCas9 mRNA MS002, 2500 ng/test article/mL, rep1
[8] = SpCas9 mRNA MS002, 2500 ng/test article/mL, rep2
[9] = SpCas9 mRNA MS002 1:1 by weight

Row | Molecule | Cynomolgus Primary Hepatocytes-% Editing (PCSK9 gene [1]; [3]) | Cynomolgus Primary Hepatocytes-% Editing (PCSK9 gene [1]; [4]) | Cynomolgus Primary Hepatocytes-% Editing (PCSK9 gene [1]; [5]) | Cynomolgus Primary Hepatocytes-% Editing (PCSK9 gene [1]; [6]) | Cynomolgus Primary Hepatocytes-% Editing (PCSK9 gene [1]; [7]) | Cynomolgus Primary Hepatocytes-% Editing (PCSK9 gene [1]; [8]) | editing compared with minimally modified control gRNA GA009 (PCSK9 gene [2]) | % Editing, day 3 (PCSK9 gene [2]; [9]) | % Editing, day 5 (PCSK9 gene [2]; [9]) | Human Primary Hepatocyte Editing % 100 (PCSK9 gene [2]; 100 ng/RNA/mL, SpCas9 mRNA MS002 1:1 by weight) | Human Primary Hepatocyte Editing % 500 (PCSK9 gene [2]; 500 ng/RNA/mL, SpCas9 mRNA MS002 1:1 by weight) | Human Primary Hepatocyte Editing % 2500 (PCSK9 gene [2]; 2500 ng/RNA/mL, SpCas9 mRNA MS002 1:1 by weight)
1 | B1 | 38.33% | 38.77% | 49.12% | 48.83% | 53.74% | 52.79% |  |  |  |  |  | 
2 | B2 |  |  |  |  |  |  | improved editing | 30% | 27% |  |  | 
3 | B3 | 35.05% | 40.31% | 44.46% | 47.93% | 45.58% | 55.34% |  |  |  |  |  | 
4 | B4 | 31.63% | 30.16% | 41.68% | 35.04% | 48.3% | 50.59% |  |  |  |  |  | 
5 | B5 | 38.28% | 35.58% | 50.5% | 47.13% | 52.62% | 55.84% |  |  |  |  |  | 
6 | B6 |  |  |  |  |  |  | improved editing | 20% | 28% |  |  | 
7 | B7 |  |  |  |  |  |  |  |  |  | 0.4% | 2.99% | 7.61%
8 | B8 | 36.7% | 37.14% | 47.21% | 49.8% | 50.4% | 46.92% |  |  |  |  |  | 
9 | B9 | 37.58% | 40.31% | 45.11% | 43.68% | 57.17% | 51.45% |  |  |  |  |  | 
